# Measurements as given in the RNAGym collection of RNA variant scans (doi:10.1073/pnas.2313332121).
# B1: TPR t1 (parent)
# chain: GACCAAUCUGCCCUCAGAGCUCGAGAACAUCUUCGGAUGCAGAGGAGGCAGGCUUCGGUGGCGCGAUAGCGCCAACGUCCUCAACCUCCAAUGCAUCCCACCACAUGAUGAUGCCUGAAGAGCCUUGGUUUUUUG
# Variants of: B1
# Test: polymerase ribozyme fitness, log enrichment relative to wild type (log ratio); higher = more active; in vitro selection for triplet polymerase activity
# Procedure, shortened: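 Frozen incubation at −7 °C formed the core of a single, triplicate in vitro selection round applied to PCR-built, transcribed mutant libraries of each subunit of a heterodimeric triplet polymerase ribozyme. Extended constructs were gel-excised, captured with streptavidin beads and amplified by RT-PCR, and input and output libraries were Illumina-sequenced with a filter of ≥10 input reads and ≥1 read per output. Fitness is the logarithm of genotype enrichment relative to wild-type enrichment, with inverse-variance-weighted replicate averaging, and the logarithm is base 2.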
row,Variant,polymerase ribozyme fitness (log ratio)
1,A50U A83C C89G,-5.74
2,A50U G51U G69A C97U U109A,-6.25
3,A50U G69A C123G U131G,-4.01
4,A50U G128A,-3.35
5,A50G G113C,-1.84
6,A50G G113U,-2.68
7,A50U U81C C114A,-6.09
8,A50U A83G,-0.122
9,A50C G71A G77U G120C,-1.85
10,A50U G65A U78G G120A U126A U129G U130A,-7.26
11,A50U G60A C123G,1.09
12,A50U C62U U106A,-1.01
13,A50G G60C C94U U129G,-3.05
14,A50U C85G C89A G120U,-3.42
15,A50C G120C,0.605
16,A50C G120A,0.456
17,A50G C70U A111U,-4.72
18,A50U C86U,-1.27
19,A50C G63A U125G G127U,-2.41
20,A50U C82U,-1.15
21,A50G G77A,-0.057

row,Variant,polymerase ribozyme fitness (log ratio)
1,A50U C62A C82A,-1.33
2,A50G C62A,-0.949
3,A50C U92A,-3.05
4,A50U C73U,-0.956
5,A50U G120A,-0.296
6,A50U C101U A105U A121U U130C,-2.62
7,A50G U55G G110C,-4.52
8,A50U C124G,-0.185
9,A50C G63U U81G G128C,-4.28
10,A50G C76G,-0.226
11,A50G C76U,-0.383
12,A50U G51A C73U,-3.5
13,A50U C72U U96A U112A,-1.9
14,A50U A118C A121G U129A,-1.76
15,A50C U87A,-0.514
16,A50U G52U U87G,-2.24
17,A50U U87G G113U,-4.19
18,A50G G71C G113U U126A,-6
19,A50U C64A A100C A111G,-6.26
20,A50U G69C,-1.7
21,A50U G71C G117A,-3.1

row,Variant,polymerase ribozyme fitness (log ratio)
1,A50C U55G G58C G61C U81A,0.349
2,A50U U59A,-0.619
3,A50G C64U C88G,-0.539
4,A50C G69U,-0.0602
5,A50C U55G G58C G61C U81A C124A,0.946
6,A50G G63U,-1.73
7,A50U C64U A111G U125A,-1.48
8,A50U U54C U106A G117A,-1.12
9,A50U C123U,0.00244
10,A50U C56A A66U G69U C80G C104G C115G C123U U130C,-8.27
11,A50C G61C G127A,-5.03
12,A50U G61A U106A,-1.03
13,A50U C62G,-3.56
14,A50U C62U,-1.15
15,A50U U96A,-1.77
16,A50U U55G G58A,-5.41
17,A50G A84C C114G,-2.83
18,A50G C82U,0.198
19,A50G C73U,0.871
20,A50G C53G G60U C72U C101A G117A,-4.06
21,A50C G69A G120A G127A,-3.94

row,Variant,polymerase ribozyme fitness (log ratio)
1,A50U G60A C70U G93A,-3.24
2,A50G G61C,-3.07
3,A50U G57A U130C,-1.53
4,A50C G71U A121C,0.855
5,A50G G128C,-1.8
6,A50U G63A U106C,-3.09
7,A50U G61C G122U,-3.51
8,A50U U78C,-2.19
9,A50U G61U U126G,-2.73
10,A50G C99U C115U G117C,-6.47
11,A50C G69C C104U,-1.11
12,A50U G135U,-2.36
13,A50G C53A C72A,-0.193
14,A50U U92A,-5.22
15,A50U U92G,-3.4
16,A50U G60C C123A G127C U132C,-0.878
17,A50C G127A,-0.787
18,A50U U81A C85G,-0.884
19,A50G C56U G69C C123G C124G,-5.93
20,A50G C101U,-0.187
